Laboratory results: paper PMC8042219, “Expression of Novel L-Leucine Dehydrogenase and High-Level Production of L-Tert-Leucine Catalyzed by Engineered Escherichia coli” (Frontiers in Bioengineering and Biotechnology, 2021)

Assays:
TbLeuDH = target: T1, TbLeuDH (Staphylospora marina, UniProt Z9JLC0NN60); assay: NADH absorbance at […] nm, specific activity; type: biochemical; settings: reductive amination, 2 mM TMP, 0.1 mM NADH, 500 mM NH4Cl-NH3 buffer pH 9.5, 30 °C
T1 sequence (Z9JLC0NN60 1-365): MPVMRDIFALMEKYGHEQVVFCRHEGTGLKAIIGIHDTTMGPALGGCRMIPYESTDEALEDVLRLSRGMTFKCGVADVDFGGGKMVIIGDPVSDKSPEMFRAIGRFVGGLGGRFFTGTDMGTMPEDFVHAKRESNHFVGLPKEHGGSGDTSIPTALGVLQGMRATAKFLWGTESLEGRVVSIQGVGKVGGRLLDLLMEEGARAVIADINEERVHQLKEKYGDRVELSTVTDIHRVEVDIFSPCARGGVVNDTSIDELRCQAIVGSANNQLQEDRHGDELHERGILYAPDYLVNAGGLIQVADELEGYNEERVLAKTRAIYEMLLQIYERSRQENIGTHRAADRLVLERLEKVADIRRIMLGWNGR

CsLeuDH = target: T2, CsLeuDH (Caldanaerobacter subterraneus, UniProt U5CQF4); assay: NADH absorbance at […] nm, specific activity; type: biochemical; settings: reductive amination, 2 mM TMP, 0.1 mM NADH, 500 mM NH4Cl-NH3 buffer pH 9.5, 30 °C
T2 construct: gene O163_07585
T2 sequence (U5CQF4 1-355): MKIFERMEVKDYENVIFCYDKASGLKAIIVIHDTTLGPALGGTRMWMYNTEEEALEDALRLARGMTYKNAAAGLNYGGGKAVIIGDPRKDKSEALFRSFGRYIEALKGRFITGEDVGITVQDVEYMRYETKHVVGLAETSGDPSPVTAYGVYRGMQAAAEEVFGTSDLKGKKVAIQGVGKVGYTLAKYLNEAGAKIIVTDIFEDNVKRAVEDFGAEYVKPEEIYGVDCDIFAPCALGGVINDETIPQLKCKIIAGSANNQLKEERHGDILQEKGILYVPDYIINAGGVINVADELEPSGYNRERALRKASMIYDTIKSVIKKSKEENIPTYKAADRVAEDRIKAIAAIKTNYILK

BbLeuDH = target: T3, BbLeuDH (Bdellovibrio bacteriovorus, UniProt A0A1Z3N8C0); assay: NADH absorbance at […] nm, specific activity; type: biochemical; settings: reductive amination, 2 mM TMP, 0.1 mM NADH, 500 mM NH4Cl-NH3 buffer pH 9.5, 30 °C
T3 construct: gene B9G79_08965
T3 sequence (A0A1Z3N8C0 1-376): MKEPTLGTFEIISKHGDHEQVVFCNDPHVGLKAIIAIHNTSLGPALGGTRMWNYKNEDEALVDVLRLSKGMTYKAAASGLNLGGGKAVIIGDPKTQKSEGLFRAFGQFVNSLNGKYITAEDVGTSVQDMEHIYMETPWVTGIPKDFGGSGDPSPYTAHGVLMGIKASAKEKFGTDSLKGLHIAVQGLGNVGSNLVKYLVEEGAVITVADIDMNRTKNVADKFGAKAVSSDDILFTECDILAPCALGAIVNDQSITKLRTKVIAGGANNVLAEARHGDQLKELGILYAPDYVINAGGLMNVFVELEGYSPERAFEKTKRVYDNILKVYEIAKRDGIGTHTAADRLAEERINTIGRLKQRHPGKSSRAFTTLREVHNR

purified protein [1] = substrate: CC(C)(C)C(=O)C(=O)O; assay: purified protein; type: biochemical, Planifilum fimeticola; settings: reductive amination, TMP varied 1-20 mM, 0.3 mM NADH; standard assay 500 mM NH4Cl-NH3 buffer pH 9.5, 30 °C; pH 9.5; 30.0 °C
purified protein [2] = substrate: NC(=O)C1=CN([C@@H]2O[C@H](COP(=O)(O)OP(=O)(O)OC[C@H]3O[C@@H](n4cnc5c(N)ncnc54)[C@H](O)[C@@H]3O)[C@@H](O)[C@H]2O)C=CC1; assay: purified protein; type: biochemical, Planifilum fimeticola; settings: reductive amination, NADH varied 0.05-0.35 mM, 40 mM TMP; standard assay 500 mM NH4Cl-NH3 buffer pH 9.5, 30 °C; pH 9.5; 30.0 °C; varied: cofactor
purified protein [3] = substrate: NC(=O)c1ccc[n+]([C@@H]2O[C@H](COP(=O)(O)OP(=O)(O)OC[C@H]3O[C@@H](n4cnc5c(N)ncnc54)[C@H](O)[C@@H]3O)[C@@H](O)[C@H]2O)c1; assay: purified protein; type: biochemical, Planifilum fimeticola; settings: oxidative deamination, NAD+ varied 0.1-4 mM, 4 mM L-leucine; varied: cofactor
purified protein [4] = substrate: CC(C)C[C@H](N)C(=O)O; assay: purified protein; type: biochemical, Planifilum fimeticola; settings: oxidative deamination, L-leucine varied 0.1-3 mM, 1 mM NAD+

For `CC(C)(C)C(=O)C(=O)O` [Trimethylpyruvate], the “NADH absorbance at 340 nm, specific activity” value (shortened to “NADH absorbance at 340 nm”) (TbLeuDH) was “All four soluble leucine dehydrogenases have catalytic activity for TMP”, the “NADH absorbance at 340 nm” value (CsLeuDH) was “All four soluble leucine dehydrogenases have catalytic activity for TMP” and the “NADH absorbance at 340 nm” value (BbLeuDH) was “All four soluble leucine dehydrogenases have catalytic activity for TMP”.

B1: PfLeuDH (Planifilum fimeticola) (protein)
chain: MKWFDYMERYDYEQLIFCQDKNSGLKAIIAIHDTTLGPALGGVRMWKYDSEEEAIVDALRLARGMTYKAAAAGLNLGGGKTVIIGDPRKDKNEEMFRALGRFIQGLNGRYITAEDVGTTEEDMDIIHQETRFVTGVSPAFGSSGNPSPVTAYGVYRGMKAAAKIAFGSDSLEGKTVAVQGVGSVAYHLCKHLHEEGARLIVTDIVRENVERAVRDFGAESVAPDKIYDVECDIFSPCALGAIINDETLPRLKCRVVAGSANNQLKEERHGDRLEELGIIYVPDYVINAGGLINVADELFGYNRERAMKKVETIYDNVLRVFEIAKRDGIPSYKAADRMAEERIESLTRSRSTFLRNERNVLNMV
In the case of B1, the Km (purified protein [1]) is reported as 3080 µM, the Vmax (purified protein [1]) is reported as 58.6 µmol/min/mg and the kcat (purified protein [1]) is reported as 39.1 s⁻¹. For the same molecule, the kcat/Km (purified protein [1]) was 12700 M⁻¹ s⁻¹, the Km (purified protein [2]) was 60 µM and the Vmax (purified protein [2]) was 9.09 µmol/min/mg. It also gave a kcat (purified protein [2]) of 6.06 s⁻¹, a kcat/Km (purified protein [2]) of 101000 M⁻¹ s⁻¹ and a Km (purified protein [3]) of 110 µM. The Vmax (purified protein [3]) was 2.72 µmol/min/mg, the kcat (purified protein [3]) was 1.81 s⁻¹ and the kcat/Km (purified protein [3]) was 16400 M⁻¹ s⁻¹. For the same molecule, the Km (purified protein [4]) was 100 µM, the Vmax (purified protein [4]) was 3.49 µmol/min/mg and the kcat (purified protein [4]) was 2.33 s⁻¹. It also gave a kcat/Km (purified protein [4]) of 23300 M⁻¹ s⁻¹.
